Measured values as given in the supplement of paper PMC10567573.

B1: ZNF263 (parent)
chain: CSECGESFSRSSRLMSHQRTHTG
B2: ETS1 (parent)
chain: FSEPSFITESYQTLHPISSEELLS

Variants of: B1
Assay: protein stability index of a GFP-peptide fusion (GPS, HEK-293T) (PSI 1-6); higher = more stable
Conditions: c terminus: native
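Note: lentivirally expressed fusions sorted by FACS into six bins by GFP to DsRed ratio, PSI derived from sequencing read proportions per bin multiplied by bin number.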

Variant | protein stability index
S11Y | 3.67
S11T | 2.54
S11R | 2.31
S11V | 4.71
L14Q | 1.32
L14G | 1.62
L14N | 2.12
L14H | 1.55
L14P | 1.67
L14D | 2.74
L14F | 2.43
L14M | 1.87
L14A | 2.39
L14T | 2.05
L14E | 2.35
L14V | 1.45
L14Y | 2.98
L14W | 1.96
H17Y | 1.76
H17C | 2.42
H17A | 1.44
H17D | 2.52
H17T | 1.46
H17I | 3.2
H17Q | 2.04
H17N | 1.57

Variant | protein stability index
H17E | 2.38
H17W | 3.17
H17P | 1.11
H17S | 1.51
H17K | 2.76
H17F | 2.73
H17L | 1.38
T22S | 2.23
T22M | 3.83
T22A | 2.03
T22N | 2.29
T22F | 3.75
T22L | 4.2
T22C | 2.08
T22Q | 2.43
T22V | 3.03
T22D | 4.27
T22E | 3.76
T22I | 2.95
T22W | 2.25
T22Y | 2.25
R13I | 3.96
R13K | 4.19
R13P | 2.43
R13T | 4.34
R13L | 4.84

Variant | protein stability index
R13H | 4.79
R13W | 2.56
R13Y | 3.6
R13Q | 4.66
R13E | 5.6
R13G | 3.3
R13C | 4.52
R13M | 4.03
R13N | 4.26
R13V | 4.14
R13A | 4.91
R13F | 3.48
R13S | 4.84
R13D | 5.63
S16H | 2.64
S16V | 3.49
S16W | 1.83
S16L | 3.83
S16M | 4.14
S16Y | 1.93
S16N | 2.14
S16E | 4.89
S16C | 3.1
S16I | 2.88
S16A | 3.8
S16R | 3.69

Variant | protein stability index
S16D | 4.8
S16T | 3.34
S16F | 2.28
G23L | 4.69
G23P | 4.52
G23T | 4.04
G23R | 4.2
G23I | 4.41
G23M | 4.34
G23N | 4.85
G23K | 4.89
G23S | 4
G23Q | 4.16
G23E | 4.44
G23Y | 3.29
G23V | 3.56
G23F | 3.74
G23H | 3.59
G23A | 2.97
G23C | 3.33
G23W | 3.79
R19D | 4.39
R19Q | 3.63
R19I | 2.58
R19F | 3.55
R19A | 4.1

Variant | protein stability index
R19H | 4.51
R19L | 3.49
R19W | 3.17
R19V | 2.73
R19Y | 3.63
R19M | 3.43
R19N | 4.11
R19C | 5
R19S | 3.46
R19T | 3.76
R19P | 2.44
R19K | 5.13
R19E | 3.78
S12T | 1.72
S12K | 1.99
S12Y | 2.65
S12P | 2.06
S12V | 1.86
S12C | 3.76
S12D | 4.42
S12I | 2.4
S12L | 2.01
S12N | 2.52
S12M | 2.58
S12R | 2.23
S12H | 2.66

Variant | protein stability index
S12A | 2.13
S12Q | 2.38
S12F | 1.86
S12W | 2.13
S12G | 1.91
T20K | 3.72
T20E | 2.45
T20C | 2.35
T20V | 2.9
T20M | 1.95
T20Q | 3.26
T20L | 3.21
T20F | 2.48
T20A | 3.7
T20D | 3.75
T20H | 3.72
T20I | 4.43
T20Y | 2.08
T20G | 2.96
T20W | 1.92
T20S | 2.44
T20N | 1.93
H21Y | 2.64
H21D | 3.31
H21N | 2.4
H21W | 1.87

Variant | protein stability index
H21T | 1.6
H21L | 2.52
H21G | 3.01
H21E | 2.15
H21M | 1.45
H21K | 1.78
H21S | 2.74
H21F | 2.47
H21C | 2.72
M15A | 3.54
M15Y | 2.83
M15Q | 3.51
M15N | 2.22
M15V | 2.54
M15H | 3.24
M15P | 1.72
M15F | 3.2
M15C | 2.75
M15T | 2.54
M15E | 3.72
M15K | 3.97
M15D | 3.48
M15W | 1.85
M15G | 1.98
M15L | 3.13
M15S | 2.19

Variant | protein stability index
M15I | 3.54
M15R | 3.03
Q18E | 2.76
Q18F | 2.38
Q18H | 2.57
Q18N | 2.16
Q18G | 2.49
Q18D | 2.58
Q18P | 2.22
Q18W | 2.77
Q18K | 2.22
Q18S | 2.13
Q18T | 2.24
Q18Y | 2.39
Q18L | 3.02
Q18M | 4.32
Q18A | 2.48
Q18C | 2.5
Q18I | 3.21
Q18R | 1.89

Variants of: B2
Assay: as above
Conditions: c terminus: a fixed tail appended

Variant | protein stability index
S2C | 2.38
S2H | 2.46
S2Y | 2.62
S2V | 2.42
S2R | 2.66
S2A | 2.42
S2F | 2.26
S2N | 3.37
S2E | 3.98
S2P | 1.95
S2T | 1.95
S2Q | 1.65
S2L | 1.49
S2M | 1.72
S2W | 2.1
S2G | 2.63
S2I | 3.17
S2K | 3.34
S2D | 4.15
S5D | 2.51
S5W | 2.11
S5H | 1.58

Variant | protein stability index
S5M | 2.37
S5R | 2.63
S5P | 2.66
S5N | 2.34
S5K | 2.14
S5L | 1.99
S5I | 1.48
S5Q | 1.75
S5F | 2.26
S5Y | 1.8
S5T | 2.1
S5C | 1.69
S5V | 1.91
S5E | 2.35
S5A | 2.07
S5G | 2.09
I7E | 4.03
I7P | 3.09
I7R | 3.17
I7N | 4.24
I7T | 3.29
I7C | 2.03

Variant | protein stability index
I7Q | 3.83
I7V | 2.21
I7A | 1.59
I7H | 2.42
I7K | 3.73
I7W | 2.33
I7D | 4.01
I7M | 2.31
I7F | 1.68
I7G | 2.33
I7S | 3.55
I7L | 2.19
F1R | 4.2
F1A | 4.17
F1M | 4
F1T | 4.51
F1L | 4.45
F1Y | 2.1
F1K | 4.06
F1D | 4.47
F1N | 4.24
F1S | 4.07

Variant | protein stability index
F1W | 3.67
F1V | 4.18
F1E | 4.56
F1H | 4.1
F1C | 3.52
F1G | 4.4
F1Q | 4.43
F1I | 4.03
F1P | 4.23
F6N | 4.57
F6T | 4.34
F6P | 4.26
F6I | 3.15
F6E | 4.53
F6K | 3.58
F6M | 3.48
F6L | 3.22
F6D | 4.8
F6V | 3.23
F6G | 3.85
F6H | 4.14
F6Q | 4.76

Variant | protein stability index
F6Y | 2.74
F6S | 4.2
F6C | 3.36
F6W | 2.27
F6R | 4.13
F6A | 4
E3L | 1.81
E3G | 2
E3C | 1.7
E3S | 2.21
E3A | 2.37
E3P | 2.9
E3R | 2.25
E3I | 1.77
E3M | 1.9
E3N | 1.87
E3F | 1.6
E3H | 2.17
E3V | 2.5
E3T | 2.35
E3K | 2.05
E3D | 1.74

Variant | protein stability index
E3Q | 1.7
E3Y | 2.23
E3W | 1.5
P4R | 2.13
P4A | 2.21
P4H | 2.54
P4L | 2.03
P4N | 2.99
P4C | 2.2
P4F | 1.92
P4W | 2.17
P4E | 3.19
P4K | 2.45
P4D | 3.65
P4Q | 2.81
P4M | 2.19
P4V | 1.49
P4G | 2.37
P4I | 1.54
P4Y | 2.2
P4S | 2.39
P4T | 2.65
